One substance from patent publication US20240043534A1 can be followed below.

The experiment deals with Fab with CK (kappa) light chain constant domain. Put plainly: ELISA.

“wild type Protein G (wild-type non-modified protein G polypeptide)” gave a fold lower EC50 for CK than for Cλ of 7 fold.
